Data published in the RNAGym collection of RNA variant scans (doi:10.7554/elife.90254).

B1: LINE1-mini (parent)
chain: GGCAGAGCUCAACACAGCGUGGCAAAGUGGCUGUGGCUAGACUGCC

Variants of: B1
Experiment: self-cleavage, relative activity (ratio to wild type); higher = more cleavage; in vitro, sequencing; the parent is a self-cleaving ribozyme

Row | Variant | self-cleavage
1 | A14C C23A | 0.21
2 | A14C C23G | 0.11
3 | A14C C23U | 0.12
4 | A14U G30C | 0.14
5 | A14U G30A | 0.18
6 | C13U G29A | 0.28
7 | C13U G29U | 0.21
8 | C13U G29C | 0.09
9 | A14C A25U | 0.09
10 | A14C A25C | 0.07
11 | A14C A25G | 0.07
12 | A14U G27U | 0.29
13 | A14U G27C | 0.16
14 | A14U G27A | 0.37
15 | A14C C46G | 0.08
16 | A14C C46U | 0.18
17 | A14C C46A | 0.13
18 | A14G C31G | 0.04
19 | A14G C31A | 0.09
20 | A14G C31U | 0.04
21 | A14U C15A | 0.16
22 | A14U C15U | 0.18
23 | A14U C15G | 0.04
24 | A14G U43C | 0.06

Row | Variant | self-cleavage
25 | A14G U43A | 0.05
26 | A14G U43G | 0.11
27 | A14G C37U | 0.19
28 | A14G C37G | 0.04
29 | A14G C37A | 0.07
30 | C13U C23A | 0.26
31 | C13U C23U | 0.22
32 | C13U C23G | 0.06
33 | A14U A25U | 0.32
34 | A14U A25G | 0.1
35 | A14U A25C | 0.3
36 | A14U A41U | 0.25
37 | A14U A41C | 0.06
38 | A14U A41G | 0.1
39 | A14U C45G | 0.07
40 | A14U C45A | 0.07
41 | A14U C45U | 0.36
42 | A14C G44A | 0.07
43 | A14C G44C | 0.13
44 | A14C G44U | 0.07
45 | C13U G35C | 0.22
46 | C13U G35A | 0.71
47 | C13U G35U | 0.18
48 | A14G U32G | 0.04

Row | Variant | self-cleavage
49 | A14G U32A | 0.06
50 | A14G U32C | 0.08
51 | A14C C42U | 0.07
52 | A14C C42A | 0.07
53 | A14C C42G | 0.07
54 | A14C C45G | 0.11
55 | A14C C45A | 0.08
56 | A14C C45U | 0.08
57 | A14G G22C | 0.31
58 | A14G G22U | 0.98
59 | A14G G22A | 0.34
60 | C13U U38G | 0.02
61 | C13U U38A | 0.04
62 | C13U U38C | 0.1
63 | A14G G33C | 0.03
64 | A14G G33U | 0.16
65 | A14G G33A | 0.07
66 | A14C | 0.12
67 | A14U | 0.45
68 | A14G | 0.58
69 | C13U U28A | 0.49
70 | C13U U28C | 0.28
71 | C13U U28G | 0.08
72 | A14U C37U | 0.03

Row | Variant | self-cleavage
73 | A14U C37G | 0.05
74 | A14U C37A | 0.08
75 | A14C G17C | 0.04
76 | A14C G17U | 0.28
77 | A14C G17A | 0.08
78 | A14U G19A | 0.53
79 | A14U G19U | 0.62
80 | A14U G19C | 0.15
81 | A14G C42U | 0.21
82 | A14G C42A | 0.08
83 | A14G C42G | 0.04
84 | A14U A39C | 0.14
85 | A14U A39G | 0.06
86 | A14U A39U | 0.57
87 | A14C A16G | 0.1
88 | A14C A16U | 0.12
89 | A14C A16C | 0.08
90 | A14U C46A | 0.4
91 | A14U C46G | 0.19
92 | A14U C46U | 0.28
93 | A14G G17U | 0.09
94 | A14G G17A | 0.17
95 | A14G G17C | 0.09
96 | A14G C23G | 0.45

Row | Variant | self-cleavage
97 | A14G C23A | 0.53
98 | A14G C23U | 0.85
99 | C13U G30A | 0.15
100 | C13U G30C | 0.09
101 | C13U G30U | 0.15
102 | A14U G21A | 0.62
103 | A14U G21U | 0.74
104 | A14U G21C | 0.57
105 | C13U U32G | 0.21
106 | C13U U32A | 0.11
107 | C13U U32C | 0.08
108 | A14G G40U | 0.12
109 | A14G G40C | 0.09
110 | A14G G40A | 0.1
111 | A14U A26U | 0.53
112 | A14U A26G | 0.34
113 | A14U A26C | 0.6
114 | C13U C46U | 0.3
115 | C13U C46A | 0.22
116 | C13U C46G | 0.09
117 | A14U G17C | 0.22
118 | A14U G17A | 0.13
119 | A14U G17U | 0.1
120 | C13U C45U | 0.13

Row | Variant | self-cleavage
121 | C13U C45G | 0.06
122 | C13U C45A | 0.05
123 | C13U C37G | 0.1
124 | C13U C37A | 0.27
125 | C13U C37U | 0.11
126 | A14U G29A | 0.98
127 | A14U G29C | 0.41
128 | A14U G29U | 0.5
129 | A14C A26G | 0.06
130 | A14C A26U | 0.09
131 | A14C A26C | 0.16
132 | A14C A39U | 0.07
133 | A14C A39G | 0.04
134 | A14C A39C | 0.04
135 | A14C G19A | 0.1
136 | A14C G19U | 0.1
137 | A14C G19C | 0.03
138 | A14C G35A | 0.09
139 | A14C G35U | 0.07
140 | A14C G35C | 0.04
141 | A14U G22A | 0.35
142 | A14U G22C | 0.27
143 | A14U G22U | 0.87
144 | A14G U28G | 0.3

Row | Variant | self-cleavage
145 | A14G U28C | 0.04
146 | A14G U28A | 0.39
147 | A14G G35C | 0.05
148 | A14G G35A | 0.07
149 | A14G G35U | 0.15
150 | A14C U43G | 0.01
151 | A14C U43C | 0.04
152 | A14C U43A | 0.2
153 | A14C A24G | 0.07
154 | A14C A24U | 0.07
155 | A14C A24C | 0.11
156 | C13U G22A | 0.13
157 | C13U G22C | 0.1
158 | C13U G22U | 0.32
159 | A14C U32C | 0.08
160 | A14C U32A | 0.07
161 | A14C U32G | 0.07
162 | A14C G36C | 0.02
163 | A14C G36U | 0.09
164 | A14C G36A | 0.15
165 | C13U U34C | 0.14
166 | C13U U34G | 0.05
167 | C13U U34A | 0.09
